Measurements published in patent US20050112126A1 (Genentech, published 2005).
Positions count from the first letter of the chain named. Names may count otherwise. “And” between values parts separate entries of the source, which are not always exact repeats. Equal entries are not always repeated. Where two headings read alike, the source gives them in different places. Blank lines part the entries; values can stand above or below the binder they belong to.

How the values were obtained:
[1] = target: T1, VEGF (human, UniProt P15692-4 27-191, limits assumed); test: BIAcore SPR, F(ab) over immobilized VEGF
T1 construct: Biotinylated in the KDR-IgG ELISA, amine-coupled to the chip in BIAcore; also called biotinylated VEGF; vascular endothelial growth factor
Excerpt: (§1) BIAcore™ Biosensor Assay: VEGF binding of the humanized and chimeric F(ab)s were compared using a BIAcore™ biosensor (Karlsson et al. Methods: A Comparison to Methods in Enzymology 6:97-108 (1994)). […] VEGF was coupled to a CM-5 biosensor chip through primary amine groups according to manufacturer's instructions (Pharmacia). […] Data points from 0-4500 sec were used for off-rate kinetic analysis. The dissociation rate constant (koff) was obtained from the slope of the plot of ln(R0/R) versus time, where R0 is the signal at t=0 and R is the signal at each time point.
(§2) The slope, Kₛ, was obtained from the plot of ln(−dR/dt) versus time for each F(ab) concentration using the BIAcore™ kinetics evaluation software as described in the Pharmacia Biosensor manual. R is the signal at time t. […] The association rate constant (kₒₙ) was obtained from the slope of the plot of Kₛ versus F(ab) concentration. At the end of each cycle, bound F(ab) was removed by injecting 5 μl of 50 mM HCl at a flow rate of 20 μl/min to regenerate the chip.

[2] = target: T1, VEGF; test: BIAcore SPR, F(ab) over immobilized VEGF, koff/kon
Excerpt: as §1, §2

[3] = target: T1, VEGF; test: competition ELISA (biotinylated VEGF to KDR-IgG)
Procedure: (§3) Standards (6.9-440 ng/ml chimeric F(ab)) and two-fold serial of samples were incubated with 2 nM biotinylated VEGF for 1 h in tubes. The solutions from the tubes were then transferred to the ELISA plates and incubated for 1 h. […] Titration curves were fit with a four-parameter nonlinear regression curve-fitting program (KaleidaGraph, Synergy Software, Reading Pa.). […] Assays for full-length IgG were the same as for the F(ab)s except that the assay buffer contained 10% human serum.

[4] = target: T2, VEGF121 (human, UniProt P15692 27-147); test: BIAcore SPR, Fab over immobilized VEGF121
T2 construct: mature; Immobilized on the biosensor chip via primary amino groups; also called Purified VEGF121
T2 sequence (looked up): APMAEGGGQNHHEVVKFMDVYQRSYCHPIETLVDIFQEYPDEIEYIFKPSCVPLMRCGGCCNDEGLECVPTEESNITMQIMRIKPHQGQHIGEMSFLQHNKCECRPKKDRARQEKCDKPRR
Procedure: VEGF₁₂₁ was covalently immobilized on the biosensorchip via primary amino groups. Binding of humanized A4.6.1 Fab variants was measured by flowing solutions of Fab in PBS/0.05% TWEEN 20™ over the chip at a flow rate of 20 μL/min. Following each binding measurement, residual Fab was stripped from the immobilized ligand by washing with 5 μL of 50 mM aqueous HCl at 3 μL/min. Binding profiles were analyzed by nonlinear regression using a simple monovalent binding model (BIAevaluation software v2.0; Pharmacia).

[5] = target: T1, VEGF; test: competition ELISA (biotinylated VEGF to KDR-IgG), 10% human serum
Procedure: as §3

[6] = target: T1, VEGF; test: BIAcore-2000 SPR, relative to Y0192
Procedure: (§4) BIAcore Analysis: The VEGF-binding affinities of Fab fragments were calculated from association and dissociation rate constants measured using a BIAcore-2000™ surface plasmon resonance system (BIAcore, Inc., Piscataway, N.J.). A biosensor chip was activated for covalent coupling of VEGF using N-ethyl-N′-(3-dimethylaminopropyl)-carbodiimide hydrochloride (EDC) and N-hydroxysuccinimide (NHS) according to the supplier's (BIAcore, Inc., Piscataway, N.J.) instructions. VEGF was buffered exchanged into 20 mM sodium acetate, pH 4.8 and diluted to approximately 50 μg/mL. An aliquot (35 μL) was injected at a flow rate of 2 μL/min to achieve approximately 700-1400 response units (RU) of coupled protein. Finally, 1 M ethanolamine was injected as a blocking agent.
(§5) For kinetics measurements, two-fold serial dilutions of Fab were injected in PBS/TWEEN™ buffer (0.05% TWEEN 20™ in phosphate buffered saline) at 25° C. at a flow rate of 10 μL/min. […] Equilibrium dissociation constants, Kd's from surface plasmon resonance (SPR) measurements were calculated as koff/kon.

[7] = target: T1, VEGF; test: BIAcore-2000 SPR, Fab over immobilized VEGF, 25 C
Procedure: as §4, §5

[8] = target: T1, VEGF; test: BIAcore-2000 SPR, Fab over immobilized VEGF, 25 C; off-rate near detection limit
Procedure: as §4, §5

[9] = target: T3, rhVEGF165 (human, UniProt P15692 27-191); test: cell-based or functional assay
[10] = target: T3, rhVEGF165; test: cell-based or functional assay; remark: listed apart in the source
[11] = target: T1, VEGF; test: competition ELISA (biotinylated VEGF to KDR-IgG); remark: listed apart in the source

koff [1]: 5.9e-05 s⁻¹
kon [1]: 65000 M⁻¹ s⁻¹
Kd [2]: 0.91 nM
EC50 [3]: 0.049 µg/mL and 1 nM
EC50 F(ab)-X / EC50 chimeric F(ab) [3]: 1 ratio
Kd [4]: 1.6 nM
koff [4]: 8.5e-05 s⁻¹
kon [4]: 54000 M⁻¹ s⁻¹
B1: chimeric F(ab) (Fab, V domains shown)
VH: EIQLVQSGPELKQPGETVRISCKASGYTFTNYGMNWVKQAPGKGLKWMGWINTYTGEPTYAADFKRRFTFSLETSASTAYLQISNLKNDDTATYFCAKYPHYYGSSHWYFDVWGAGTTVTVSS
VL: DIQMTQTTSSLSASLGDRVIISCSASQDISNYLNWYQQKPDGTVKVLIYFTSSLHSGVPSRFSGSGSGTDYSLTISNLEPEDIATYYCQQYSTVPWTFGGGTKLEIKR
notes: also called chim-F(ab); A4.6.1 chimera

EC50 [5]: 0.113 µg/mL and 0.75 nM
IgG1/chIgG1 (EC50 ratio) [5]: 1 ratio
B2: chIgG1 (antibody, V domains shown)
VH: B1 VH
VL: B1 VL
notes: Murine A4.6.1 VL and VH fused to human kappa CL and human IgG1 heavy chain constant domains; also called chimeric IgG1

IgG1/chIgG1 (EC50 ratio) [5]: 0.759 ratio
B3: muMAb VEGF A.4.6.1 (antibody, V domains shown)
VH: B1 VH
VL: B1 VL
notes: Original murine IgG1 antibody purified from ascites; also called murIgG1; murine mAb A4.6.1

Kd (wt)/Kd (mut) [6]: 4.5 ratio
Kd [7]: 0.65 nM
koff [7]: 8.1e-06 s⁻¹
kon [7]: 12000 M⁻¹ s⁻¹
B5: Y0313-3 (Fab, V domains shown)
VH: EVQLVESGGGLVQPGGSLRLSCAASGYTFTNYGINWVRQAPGKGLEWVGWINTYTGEPTYAADFKRRFTFSLDTSKSTAYLQMNSLRAEDTAVYYCAKYPYYYGSSHWYFDVWGQGTL
VL: DIQLTQSPSSLSASVGDRVTITCRANEQLSNYLNWYQQKPGKAPKVLIYFTSSLHSGVPSRFSGSGSGTDFTLTISSLQPEDFATYYCQQYSTVPWTFGQGTKVEIKR
notes: Soluble Fab

EC50 F(ab)-X / EC50 chimeric F(ab) [11]: > 1350
fold reduction of binding affinity from the chimeric F(ab) [11]: > 1000 fold
B14: F(ab)-1 (Fab, V domains shown)
VH: EVQLVESGGGLVQPGGSLRLSCAASGYTFTNYGMNWVRQAPGKGLEWVGWINTYTGEPTYAADFKRRFTISRDNSKNTLYLQMNSLRAEDTAVYYCARYPHYYGSSHWYFDVWGQGTLVTVSS
VL: DIQMTQSPSSLSASVGDRVTITCSASQDISNYLNWYQQKPGKAPKLLIYFTSSLHSGVPSRFSGSGSGTDFTLTISSLQPEDFATYYCQQYSTVPWTFGQGTKVEIK

EC50 F(ab)-X / EC50 chimeric F(ab) [3]: > 150 ratio
fold reduction in binding vs F(ab)-8 [3]: 15 fold
B16: F(ab)-9 (Fab, V domains shown)
VH: B14 VH with G49A, I70F, R72L, N74T, L79A
VL: B14 VL with L46V
notes: F(ab)-8 with GlyH49Ala; Kabat numbers; Fab with human CH1 and CL

The next lines start with the binder.

B4: Y0238-1 (Fab, V domains shown)
VH: B5 VH with Y103R, S105T
VL: B5 VL
notes: From library YC-81 on the pY0192 template; Soluble Fab
Kd (wt)/Kd (mut) [6]: 7.3 ratio
Kd [7]: 0.4 nM
koff [7]: 9e-06 s⁻¹
kon [7]: 26000 M⁻¹ s⁻¹

B6: Y0238-3 (Fab, V domains shown)
VH: B5 VH with S105T
VL: B5 VL
notes: Soluble Fab
Kd (wt)/Kd (mut) [6]: ≥ 14 ratio
koff [8]: ≤ 4e-06 s⁻¹
Kd [7]: ≤ 0.2 nM
kon [7]: 17000 M⁻¹ s⁻¹

B7: Y0313-1 (Fab, V domains shown)
VH: B5 VH with T28D, N31H, I34M, S105T
VL: B5 VL
notes: Soluble Fab; Y0243-1 with VH3 H101Y and S105T
Kd (wt)/Kd (mut) [6]: ≥ 20 ratio
koff [8]: ≤ 5.4e-06 s⁻¹
fold potency over the wild-type Fab (Y0192), inhibition of VEGF-induced HuVEC growth [9]: > 30 fold
Kd [7]: ≤ 0.15 nM
kon [7]: 35000 M⁻¹ s⁻¹
IC50 (read off the curve) [10]: ~0.5 nM

B8: Y0238-10 (Fab, V domains shown)
VH: B5 VH with Y103R, G104N, S105T
VL: B5 VL
notes: as for B4
Kd (wt)/Kd (mut) [6]: 4.8 ratio
Kd [7]: 0.6 nM
koff [7]: 9e-06 s⁻¹
kon [7]: 16000 M⁻¹ s⁻¹

B9: Y0238-7 (Fab, V domains shown)
VH: B5 VH with Y103W, S105T
VL: B5 VL
notes: as for B4
Kd (wt)/Kd (mut) [6]: ≥ 7.3 ratio
koff [8]: ≤ 6e-06 s⁻¹
Kd [7]: ≤ 0.4 nM
kon [7]: 15000 M⁻¹ s⁻¹

B10: Y0244-1 (Fab, V domains shown)
VH: B5 VH with L72V, T74V, Y101H
VL: B5 VL
notes: Soluble Fab
Kd (wt)/Kd (mut) [6]: 3.6 ratio
Kd [7]: 8 nM
koff [7]: 0.00027 s⁻¹
kon [7]: 34000 M⁻¹ s⁻¹

B11: Y0243-1 (Fab, V domains shown)
VH: B5 VH with T28D, N31H, I34M, Y101H
VL: B5 VL
notes: Soluble Fab
Kd (wt)/Kd (mut) [6]: 4.1 ratio
Kd [7]: 0.7 nM
koff [7]: 4.5e-05 s⁻¹
kon [7]: 67000 M⁻¹ s⁻¹

B12: Y0238-5 (Fab, V domains shown)
VH: B5 VH with Y103I, G104A, S105K
VL: B5 VL
notes: as for B4
Kd (wt)/Kd (mut) [6]: 3.2 ratio
Kd [7]: 0.9 nM
koff [7]: 8e-06 s⁻¹
kon [7]: 8000 M⁻¹ s⁻¹

B13: Y0244-4 (Fab, V domains shown)
VH: B5 VH with L72I, T74K, Y101H
VL: B5 VL
notes: Soluble Fab
Kd (wt)/Kd (mut) [6]: 0.9 ratio
Kd [7]: 3.3 nM
koff [7]: 0.00017 s⁻¹
kon [7]: 52000 M⁻¹ s⁻¹

B15: F(ab)-8 (Fab, V domains shown)
VH: B14 VH with I70F, R72L, N74T, L79A
VL: B14 VL with L46V
notes: F(ab)-5 with IleH69Phe and LeuH78Ala; Kabat numbers; Fab with human CH1 and CL
EC50 F(ab)-X / EC50 chimeric F(ab) [3]: 9.6 ratio
fold improvement in binding vs F(ab)-5 [3]: 8 fold
